The target in assay [1] is T1, MukB (E. coli, UniProt P22523 1-1486).
T1 chain: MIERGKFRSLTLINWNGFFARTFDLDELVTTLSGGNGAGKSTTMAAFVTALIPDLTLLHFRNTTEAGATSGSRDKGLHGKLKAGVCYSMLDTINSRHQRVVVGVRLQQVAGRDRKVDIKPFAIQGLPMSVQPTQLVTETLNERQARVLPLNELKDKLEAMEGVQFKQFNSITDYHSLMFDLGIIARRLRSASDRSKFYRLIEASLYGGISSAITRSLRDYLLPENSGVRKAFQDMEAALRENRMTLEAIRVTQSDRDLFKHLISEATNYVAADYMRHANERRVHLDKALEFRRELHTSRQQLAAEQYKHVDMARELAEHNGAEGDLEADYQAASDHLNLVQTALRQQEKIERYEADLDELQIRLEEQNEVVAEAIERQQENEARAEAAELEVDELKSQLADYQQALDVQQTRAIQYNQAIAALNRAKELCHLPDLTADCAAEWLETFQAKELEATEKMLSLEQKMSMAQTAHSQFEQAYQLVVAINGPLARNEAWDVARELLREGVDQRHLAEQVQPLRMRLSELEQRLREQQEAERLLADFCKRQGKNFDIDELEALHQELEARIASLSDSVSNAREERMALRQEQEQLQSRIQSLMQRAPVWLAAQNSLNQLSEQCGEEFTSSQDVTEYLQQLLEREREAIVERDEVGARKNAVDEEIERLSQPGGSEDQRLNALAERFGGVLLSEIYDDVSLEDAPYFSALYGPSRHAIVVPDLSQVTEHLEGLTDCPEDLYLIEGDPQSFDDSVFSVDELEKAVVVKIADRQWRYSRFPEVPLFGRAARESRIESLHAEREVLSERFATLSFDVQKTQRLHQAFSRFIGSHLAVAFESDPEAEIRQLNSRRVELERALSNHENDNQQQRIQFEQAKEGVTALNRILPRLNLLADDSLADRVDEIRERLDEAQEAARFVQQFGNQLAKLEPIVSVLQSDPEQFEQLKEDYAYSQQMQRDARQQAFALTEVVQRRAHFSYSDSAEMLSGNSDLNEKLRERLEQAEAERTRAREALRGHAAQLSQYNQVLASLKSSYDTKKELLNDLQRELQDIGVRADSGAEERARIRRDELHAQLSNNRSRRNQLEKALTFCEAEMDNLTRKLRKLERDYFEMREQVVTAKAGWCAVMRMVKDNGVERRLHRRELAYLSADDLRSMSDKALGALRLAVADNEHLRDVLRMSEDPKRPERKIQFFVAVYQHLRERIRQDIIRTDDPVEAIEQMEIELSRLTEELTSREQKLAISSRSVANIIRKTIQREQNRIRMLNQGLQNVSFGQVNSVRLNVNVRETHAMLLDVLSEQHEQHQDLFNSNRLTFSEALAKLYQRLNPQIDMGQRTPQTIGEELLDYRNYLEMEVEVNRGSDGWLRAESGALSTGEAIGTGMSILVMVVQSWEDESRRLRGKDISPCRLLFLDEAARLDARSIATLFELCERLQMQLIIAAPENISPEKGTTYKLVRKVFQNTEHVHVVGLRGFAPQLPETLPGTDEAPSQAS
The experiment in a line: FP.

Assay [2] concerns the target T1, MukB.

Where two headings read alike, the source gives them in different places.

B1: Cy5 labelled FN3 (domain or fragment)
chain: REFSTLRLSMQLSIVAGELKRAADAAEEGGDEFHWHRNVYAPLKYSVAEIFDSIDLTQRLMDEQQQQVKDDIAQLLNKDWRAAISSCELLLSETSGTLRELQDTLEAAGDKLQANLLRIQDATMTHDDLHFVDRLVFDLQSKLDRIISWGQQSIDLWIGYDRHVHKFIRT
modifications: Cy5 label (site not stated)
With B1, the affinity in assay [1], expressed as Kd, was 21 nM.

B2: Cy5 labelled FN2 (domain or fragment)
chain: MSEFSQTVPELVAWARKNDFSISLPVDRLSFLLAVATLNGERLDGEMSEGELVDAFRHVSDAFEQTSETIGVRANNAINDMVRQRLLNRFTSEQAEGNAIYRLTPLGIGITDYYIRQREFSTLRLSMQLSIVAGELKRAADAAEEGGDEFHWHRNVYAPLKYSVAEIFDSIDLTQRLMDEQQQQVKDDIAQLLNKDWRAAISSCELLLSETSGTLRELQDTLEAAGDKLQANLLRIQDATMTHDDLHFVDRLVFDLQSKLDRIISWGQQSIDLWIGYDRHVHKFIRT
modifications: Cy5 label (site not stated)
For B2, binding in assay [2] was characterised by a dissociation constant (Kd) of 26 nM.

B3: Cy5 labelled FN10 (domain or fragment)
chain: MSEFSQTVPELVAWARKNDFSISLPVDRLSFLLAVATLNGERLDGEMSEGELVDAFRHVSDAFEQTSETIGVRANNAINDMVRQRLLNRFTSEQAEGNAIYRLTPLGIGITDYYIRQREFSTLRLSMQLSIVAGELKRAADAAEEGGDEFHWHRNVYAPLKYSVAEIFDSIDLTQRLMDEQQQQVKDDIAQLLNKDWRAAISSCELLLSETSGTLRELQDTLEAAGDKLQANLLRIQDATMTHDDLHFVDRLVFDLQSKLDRIISWGQQSIDLWIGYDRHVHKFIRTAIDMDKNRVFAQRLRQSVQTYFDEPWALTYANADRLLDMRDEEMALRDEEVTGELPED
modifications: Cy5 label (site not stated)
In assay [2], B3 showed a Kd of 10 nM.

B4: Cy5 labelled FC2 (domain or fragment)
chain: AIDMDKNRVFAQRLRQSVQTYFDEPWALTYANADRLLDMRDEEMALRDEEVTGELPEDLEYEEFNEIREQLAAIIEEQLAVYKTRQVPLDLGLVVREYLSQYPRARHFDVARIVIDQAVRLGVAQADFTGLPAKWQPINDYGAKVQAHVIDKY
modifications: Cy5 label (site not stated)
In turn, B4 came in with a Kd in assay [1] of 23 nM.

These data come from article PMC5812716 (2018).
